Each block holds one binder with its values, some of them ahead of it.
Legend:
full-length GRB2 (human) = full-length GRB2 (human) (UniProt P62993); assay: NMR titration; 15N-labelled full-length GRB2 (about 200-270 uM) titrated with SOS1 PRM peptides (up to 1:12 S4, 1:36 S5 and S9, 1:24 S10), 2D 1H-15N HSQC, 25 °C, 20 mM sodium phosphate, 0.05% NaN3; global fit of residues with CSP over 0.03 ppm to an independent two-site model (values in parentheses: single-binding site model)
[1] = target: SOS1 S5 (Homo sapiens), Q07889; assay: NMR

B1: SOS1 S10 PRM (…) (peptide)
peptide: PKLPPKTYKREH
KD1 (NSH3 site, independent two-site model) (full-length GRB2 (human)): 483 µM
KD2 (CSH3 site, independent two-site model) (full-length GRB2 (human)): 579 µM

B2: SOS1 S9 PRM (…) (peptide)
peptide: IAGPPVPPRQST
KD1 (NSH3 site, independent two-site model) (full-length GRB2 (human)): 28.4 µM
KD2 (CSH3 site, independent two-site model) (full-length GRB2 (human)): 516 µM
KD for NSH3, single-binding site model (full-length GRB2 (human)): 35 µM

B3: GRB2 NSH3, P62993 (protein)
chain: MEAIAKYDFKATADDELSFKRGDILKVLNEECDQNWYKAELNGKDGFIPKNYIEMKPH
Kd [1]: 40.9 µM

Next, values leading:

KD1 (NSH3 site, independent two-site model) (full-length GRB2 (human)): 40.9 µM
KD2 (CSH3 site, independent two-site model) (full-length GRB2 (human)): 901 µM
KD for NSH3, single-binding site model (full-length GRB2 (human)): 44.9 µM
B4: SOS1 S5 PRM (…) (peptide)
peptide: DSPPAIPPRQPT

Kd [1]: 901 µM
B5: GRB2 CSH3, P62993 (protein)
chain: QQPTYVQALFDFDPQEDGELGFRRGDFIHVMDNSDPNWWKGACHGQTGMFPRNYVTPVNR

Source: article PMC11391413
